Data: US10143747B2, “Breast cancer therapeutics” (IMBA—INSTITUT FÜR MOLEKULARE BIOTECHNOLOGIE GMBH, priority 2010, dated 2018)

Test system: human SKBR3 breast cancer cells
Test: Soft-Agar Colony Formation Assay (anchorage-independent growth)
Format: cell-based
Conditions: OPG 1 μg/ml with RANKL 1 μg/ml, 18 days in culture
Method: a, Western blotting for phosphorylated (P) IKKα, total IKKα, phosphorylated (P) p65 NFκB, total p65 NFκB, phosphorylated (P) IκBα, and total IκBα in isolated primary mouse mammary gland epithelial cells (MECs) in response to RANKL stimulation (1 μg/ml). β-actin is shown as loading control. b, Western blotting for IKKα, IKKβ, IKKγ, phosphorylated (P) p65 NFκB, total p65 NFκB, phosphorylated (P) IκBα, and total IκBα in pooled late stage mammary adenocarconimas (n=4 for each lane) that developed in control, RANK^Δmam and IKKΔ^Δmam females. β-actin is shown as loading control c, Expression of RANK, CyclinD1, and p21 mRNA in late stage mammary adenocacinomas that developed in control, RANK^Δmam, and IKKα^Δmam females. Expression was determined by qRT-PCR. Data are mean values+/−sem. n=4 per group. d, Soft-Agar Colony Formation Assay. Growth of human SKBR3 breast cancer cells in soft agar in response to stimulation with RANKL (1 μg/ml) or EGF (100 ng/ml). Anchorage-independent, macroscopic colonies formed after 18 days in culture with RANKL, which was prevented by the decoy receptor OPG (1 μg/ml). […] Apoptosis was detected by immunostaining for active Caspase 3. f, Apoptotic nuclei of epithelial cells (arrows) are shown for representative mammary gland sections. Magnifications×40. g, Quantification of mammary epithelial apoptosis. A minimum of 5000 nuclei was counted for each mouse. […]

B1: OPG: secreted decoy receptor of RANKL, used as RANKL inhibitor (1 μg/ml) (protein, UniProt O00300 22-401, looked up)
Tumor necrosis factor …: ETFPPKYLHYDEETSHQLLCDKCPPGTYLKQHCTAKWKTVCAPCPDHYYTDSWHTSDECLYCSPVCKELQYVKQECNRTHNRVCECKEGRYLEIEFCLKHRSCPPGFGVVQAGTPERNTVCKRCPDGFFSNETSSKAPCRKHTNCSVFGLLLTQKGNATHDNICSGNSESTQKCGIDVTLCEEAFFRFAVPTKFTPNWLSVLVDNLPGTKVNAESVERIKRQHSSQEQTFQLLKLWKHQNKDQDIVKKIIQDIDLCENSVQRHIGHANLTFEQLRSLMESLPGKKVGAEDIEKTIKACKPSDQILKLLSLWRIKNGDQDTLKGLMHALKHSKTYHFPKTVTQSLKKTIRFLHSFTMYKLYQKLFLEMIGNQVQSVKISCL
  effect on RANKL-induced anchorage-independent macroscopic colonies: prevented
